Legend:
Caco-2 Host Cells = experiment: Host cell toxicity assay by LDH release; type: cell-based, human
Experimental: Host cell toxicity assay was performed by measuring the release of lactate dehydrogenase (LDH) in the medium using a CYTOTOX 96 Non-Radioactive Cytotoxicity Assay kit (Promega, Madison, Wis.). Toxicity was therefore classified as non toxic 0-5% LDH release and mild toxicity 5-10% LDH release (ref).

[1] = Tobias et al. 1995; read-out: dissociation constant KD for LPS binding; cited from earlier work

Row | Molecule | % LDH release (Caco-2 Host Cells; 10 μg/ml) [%] | % LDH release (Caco-2 Host Cells; 100 μg/ml) [%] | Kd [1] [nM]
1 | Lactoferrin (protein, UniProt P02788 20-710, looked up, Sigma) Lactotransferrin: GRRRSVQWCAVSQPEATKCFQWQRNMRKVRGPPVSCIKRDSPIQCIQAIAENRADAVTLDGGFIYEAGLAPYKLRPVAAEVYGTERQPRTHYYAVAVVKKGGSFQLNELQGLKSCHTGLRRTAGWNVPIGTLRPFLNWTGPPEPIEAAVARFFSASCVPGADKGQFPNLCRLCAGTGENKCAFSSQEPYFSYSGAFKCLRDGAGDVAFIRESTVFEDLSDEAERDEYELLCPDNTRKPVDKFKDCHLARVPSHAVVARSVNGKEDAIWNLLRQAQEKFGKDKSPKFQLFGSPSGQKDLLFKDSAIGFSRVPPRIDSGLYLGSGYFTAIQNLRKSEEEVAARRARVVWCAVGEQELRKCNQWSGLSEGSVTCSSASTTEDCIALVLKGEADAMSLDGGYVYTAGKCGLVPVLAENYKSQQSSDPDPNCVDRPVEGYLAVAVVRRSDTSLTWNSVKGKKSCHTAVDRTAGWNIPMGLLFNQTGSCKFDEYFSQSCAPGSDPRSNLCALCIGDEQGENKCVPNSNERYYGYTGAFRCLAENAGDVAFVKDVTVLQNTDGNNNEAWAKDLKLADFALLCLDGKRKPVTEARSCHLAMAPNHAVVSRMDKVERLKQVLLHQQAKFGRNGSDCPDKFCLFQSETKNLLFNDNTECLARLHGKTTYEKYLGPQYVAGITNLKKCSTSPLLEACEFLRK | 5.9 ± 1.2 | 5.8 ± 3.1 | 
2 | LPS-binding protein (protein, UniProt P18428 26-481, looked up) Lipopolysaccharide-binding …: ANPGLVARITDKGLQYAAQEGLLALQSELLRITLPDFTGDLRIPHVGRGRYEFHSLNIHSCELLHSALRPVPGQGLSLSISDSSIRVQGRWKVRKSFFKLQGSFDVSVKGISISVNLLLGSESSGRPTVTASSCSSDIADVEVDMSGDLGWLLNLFHNQIESKFQKVLESRICEMIQKSVSSDLQPYLQTLPVTTEIDSFADIDYSLVEAPRATAQMLEVMFKGEIFHRNHRSPVTLLAAVMSLPEEHNKMVYFAISDYVFNTASLVYHEEGYLNFSITDDMIPPDSNIRLTTKSFRPFVPRLARLYPNMNLELQGSVPSAPLLNFSPGNLSVDPYMEIDAFVLLPSSSKEPVFRLSVATNVSATLTFNTSKITGFLKPGKVKVELKESKVGLFNAELLEALLNYYILNTFYPKFNDKLAEGFPLPLLKRVQLYDLGLQIHKDFLFLGANVQYMRV |  |  | 3.5

Source: patent US20080274095A1, “Biocides” (priority 2004, published 2008)
